Reference: the DeepSol protein solubility set

Experiment: soluble on expression in E. coli; label from the status in PepcDB or PDB records

Sequence	soluble on expression in E. coli
MAMNGTITTWFKDKGFGFIKDENGDNRYFHVIKVANPDLIKKDAAVTFEPTTNNKGLSAYAVKVVPESKYIYIAGERLKLTSIKSYLVYSEEVPADTRIDKENTVLSVGVLMNSIRPKSVAEPDEIRSLKKLAITTFQGTTLIFSEDEIDVDATVKLLKVLEHHHHHH	soluble
MLARLLLSFSVVLTAFGVGAAEVDKTQPYQMMKQVAEVTFARLKAEQPKIKQDPNLLKVIVEQELMPYVNDRYAALKLLGPNLKGAKREDVLEFVDAFRAYLIASYAQVLTQYSDQQIEFGPEPKLDDSKRITSIKVEIIDAPRPNIKLEFKLRKDNKTDEWEAFDMVAEGISLLSSKQSEWNTKIRQDGILAVAQDLEKLAAEPIRFEAKK	soluble
MNRIYLYLLIVLILAGCSSPGGRYDMSDDQAPDTPLSVEHIEDAHPQYEPYSFGGNKDYNLRGKSYRIIKNPKGFTESGKASWYGKKFHGHLTSNGEIYDMYSMTAAHKTLPIPSYVKVTNTDNGKSTVVRVNDRGPFHDGRIIDLSYAAAYKIGVVQAGTANVRIEVITVDKPTKPRPKSKNNALEYVIQVVSSQHIERVRTLAQNLGQNLSAPSFVESTNNTHRLFLGPFTDDDLTQTLLEQVKSAGYDSAFIKTINKRAK	not soluble
MESLIGLVNRIQRACTVLGDYGGGTGSNAFNSLWEALPTVAVVGGQSSGKSSVLESIVGRDFLPRGSGIVTRRPLVLQLHKTDDGTEEYAEFLHLPKKQFTDFALVRREIQDETDRITGKNKQISPVPIHLSIYSPNVVNLTLIDLPGLTKVAVEGQPETIAEDIESMVRTYVDKPNCIILAISPANQDIATSDAIKLAKDVDPTGERTFGVLTKLDLMDKGTNALEVLEGRSYRLQHPWVGIVNRSQADINKNVDMMLARRKEREYFDTSPDYGHLASKMGSEYLAKLLSKHLESVIRTRIPSILSLINKSIEELERELDRMGRPVAVDAGAQLYTILEMCRAFDKIFKEHLDGGRPGGDRIYGVFDNQLPAALKKLPFDRHLSLQSVKKIVSEADGYQPHLIAPEQGYRRLIEGALGYFRGPAEASVDAVHYVLKELVRKSISETEELKRFPSLQVELAAAANSSLEKFREESKKSVIRLVDMESAYLTAEFFRKLPQEIERPVTNSKNQTASPSSATLDQYGDGHFRRIASNVSAYVNMVSDTLRNTIPKACVYCQVRQAKLALLNYFYSQISKREGKQLGQLLDEDPALMDRRLECAKRLELYKKARDEIDAVAWVR	not soluble
MGNYMTYIVGLTGGIGSGKTTIANLFTDLGVPLVDADVVAREVVAKDSPLLSKIVEHFGAQILTEQGELNRAALRERVFNHDEDKLWLNNLLHPAIRERMKQKLAEQTAPYTLFVVPLLIENKLTALCDRILVVDVSPQTQLARSAQRDNNNFEQIQRIMNSQVSQQERLKWADDVINNDAELAQNLPHLQQKVLELHQFYLQQAENKNALEHHHHHH	soluble
MKEHQKLEHPAQVKTKSFEDAAFEMLSTVSPIKLPRDEIPFDSVREIVLGEIIKSKQRNSRSSANDRRNMDDLLDEAPSSSSSSSHVGESSSSNLDRGTMTDEGCTDIGGAPRPIAARLYGDCTRSSSTSTSSAAGPSCSSDVATVENSKKKPLNYREKRLAEIRAARLKKYRENAEIVEFKCEENCLAEVFTKYYLELLDDEAGPANLYYRVVESLDVYFRVKTWESNCPKLLCEFLCDHILKTCQQLNELHESKNMTDEWRARECQIQVLLTLHVYVVTDERRWLDEAINKLRMIYISVGAERLRTFVEEPVTDIYLELIGDGLATIYDELCINLPADLIQYDTGLFKMTETDDSLVVKRRNGAANRLEQMLNETSADLGVGGVERARRTSTEAAAPQRRSLKRRNIEDVPKELLSPARTTRTSRSDYKHFFVEDTPDEKYQKKTTKVEEIEMNEEEDGEIGAESTSKRKTVTIKEEIDEEVKQTPMAKLRASAKLNGKRCSKRLSDLVKLSEERTQVTKKARENLNKLLEKANTPIRSVTRPIRKSVLFGSAGSMSSSPATTKCARGTSSRTSLLNKFSEMEEKKKSPLAVDTSDGHIIHTPSSASESTTPVLRDRATRRRTTRFNDKNYQPNVLKQEMHDPEFDAMESSMASPSKRTTKNSSTAASASTTPVSKWTDRQLKRQLGLTREDLNRYREAMLTTGERNRNKNVKINWESAQVNRAGRVKGAGASEDGTPIFGIARRNVRTMICHVLLNDTNPDTSFDWNKVKFDDFCGKPRTRQFQSLIQKPEAYMESLKQKYIESRVSSAKRMRSNDGASTSSRPAKRRRSNASSPKKQTASSSASSTKSLKSPVKLEAFDDFGFESEADD	soluble
MIDHAHLRLFQFCDSQFPTGAFSHSFGLETYIQRDTVHDEESFQQWLVLFLNEQLTYADGLTMRLVYDALNENDTKAILKLDRILFVQNLPKETRQGSKQMGNRMVKLASELYDSDWINWYHAQMKDKKASLHPAICFTMLGHHLGVDIETIIDYYLYQNVSSLTQNAVRAIPLGQTAGQRIVHKMIPIMKETRDHIMTIPASQLGITAPGLEINQMEHENVNVRIFISLEHHHHHH	not soluble
MGSDKIHHHHHHMNAVPQWRLAGDWFDICSCDIPCPCEFAQRPTGNHCQGVLAWHVREGQYGDVKLDGLTLVALGEFEGNLWAGEAKAVMGMYLDEKANESQREALQAIFGGHAGGWPAGFAANVGEMRGMEFVPITFEVAGDLATWRVEIPGLVVGRVEALSGPTTPPGKRVQTINPPGSEVGPGQVATWGRSVEVSTKGFGLDWIGTARSSKHIPFDWTGPS	not soluble
MHSPTPFALAIFLGILYHIPTFSNQRSIMNNLELEQLINQKLSSDKINDYAPNGLQVEGKTEIKKIITGVTASQALINYAISQNADAILVHHGYFWKSETPCIRGMKGKRIKALLVNDINLYGYHLPLDVHPELGNNAQLAKLLDIENLQPLEKGSVSIPVWGELKEPMTGKDFAEKIEKVLNRKPLICIENGPHLIRKIGICTGGGQGYIDLAAEQGCDAFITGEVSEQTIHSAREQGLYFFSAGHHATERYGIKALGEWLAKEYGFDVEFKDIDNPALEHHHHHH	soluble
MAVQKNVIKGILAGTFALMLSGCVTVPDAIKGSSPTPQQDLVRVMSAPQLYVGQEARFGGKVVAVQNQQGKTRLEIATVPLDSGARPTLGEPSRGRIYADVNGFLDPVDFRGQLVTVVGPITGAVDGKIGNTPYKFMVMQATGYKRWHLTQQVIMPPQPIDPWFYGGRGWPYGHGGWGWYNPGPARVQTVVTE	not soluble
MILKTTLELVIDVKNNEKKIRTHSWKTKKIPPKKGEVSGQKLMVEKKSSKIFIENLKCQGNSAKNIFVFHLDLLHIKKLKNLNISMSSTDPILDISFDKPVYYPGDNMKLTVSVDTKRPLNARSVMFRCRGFRNRTVSFLNKYGIAWICKDGKNELPVGRLEQKFQFELGKDCPPTYKDGKIIYKVRLEIDQPWSRPLFIEKEFKMVHKLADQKMSQVMTYTSSPRFDALFSNGQPTFKVTMPKFTLYPGETTEFKLEVENHSSSTVKKIYAELEAEPFPLYHIYGNTKAKGKMHVLVAPYSTQKFTIPFTIPTDLTASFHTCGSSLKYTMKFGLVTDSWLTTDPALALVVSIGELESEEKKDEALKTPPPPPYTA	not soluble
MTPHPRLSIGLPVYNGEEYLAESLDALLGQTYENFELVISDNASTDGTRDICRRYAAQDSRIRYIRLPRNIGAAPNHNYVFTECRGELFKWASHDDLYARDLLRSCVAALDERPEVVLAHAGQAVIDGDGKVKVPYEYGLATDSPRAPERFRSLLFEPGGDDFYGVMRSAMLRRVKPHDSYHHADRTFVAEITLHGPFHQVPELLYFRRDHPTRAERANPSKRSRCVNLDPRRAGPLHPTPRLLAEYVWGFASAIGRAPLSSADRRACHRHLAAWLTSRVRPGVGERVEDRAPVDPDRLTVSVDDLVAGREGRQALEHHHHHH	not soluble
MAEKVAVIVGPTAVGKTKLGIALAKKLGGEVISGDSMQIYKGMDIGTAKVKPDEMEGIPHHLLDIKEPCEPFSVVEFQRLCRALITEISARGRLPIIVGGTGLYIQAALYDYQFSAAPSDEAYRRALKQLAAEQGAEALHRRLEAVDPISAARIHPHNIRRVIRALEVYHCTGKPFSEWQQTEKRLLYEAAIVGLTAEREALYRRINERVDEMIAAGLIEEARALYDRGLRDCQAVQAIGYKELYDYFDGRVSLDEAIEQLKQNSRRYAKRQLTWFRNQMPVKWFDMTDAGQFAAKVQEISRYVAGKLQLEANI	not soluble
DKSYRSTKEIMEYANRFLNDTSIIPMVRSGEKVQSLSISSEDEFVDRVTYAIDDMKKEGIETIGVICENMHDTKYFGELLKSKKYINIIEKENQIYTGGETVMPSYFAKGLEFDGVILVSRENKENKDRVLYVMATRALHKLYDFHIEF	not soluble
AHHHHHHGSLEVQGISKKWKDFHLKDISFSVMDGEYFIVLGPSGAGKTVLLEIIAGIIPPDGGKVLLDGKDITLLPPEKRGIAYVPQNYALFPNMSVFDNIAFGLKVRRVPRSEIEKRVLEISEVLGIRHLLHRKPRTLSGGEQQRVAVARALVIEPEIILLDEPFANLDVQIRSRLINEMKRWRRELGFTAIHVTHSFEEALALGDRVGIMLNGKLVQVGEIREVFSRPNSEEVAKFLGFENIIEGIADGRVLHVGKLRIELPLEAKGRVRIGIRPEDILISTERIKTSARNVFKAKVEAIEDVGPLVKLTLNVCDITLRAFITRSSLVELGIEEGKEVYASFKASAIHVF	soluble
MPETEEISKGLEDVNIKWTRLTTIDGNKGILRYGGYSVEDIIASGAQDEEIQYLFLYGNLPTEQELRKYKETVQKGYKIPDFVINAIRQLPRESDAVAMQMAAVAAMAASETKFKWNKDTDRDVAAEMIGRMSAITVNVYRHIMNMPAELPKPSDSYAESFLNAAFGRKATKEEIDAMNTALILYTDHEVPASTTAGLVAVSTLSDMYSGITAALAALKGPLHGGAAEAAIAQFDEIKDPAMVEKWFNDNIINGKKRLMGFGHRVYKTYDPRAKIFKGIAEKLSSKKPEVHKVYEIATKLEDFGIKAFGSKGIYPNTDYFSGIVYMSIGFPLRNNIYTALFALSRVTGWQAHFIEYVEEQQRLIRPRAVYVGPAERKYVPIAERK	soluble
MKLKLVDVETNPHEEEVGTCEFCMSVEMVNEPVFVFKKDIGELVRVKAFIWSWGFYDEENIENIVDFAAYVNEQEFDEEQELDYSWLTNLIYEYEYGKDC	not soluble
MIKMIVVLRLGHRPERDKRVTTHVALTARAFGADGIIIASEEDEKVKESVEDVVKRWGGPFFIEFNRNWRKVMKEFTGVKVHLTMYGLHVDDVIEELKEKLKKGEDFMIIVGAEKVPREVYELADYNVAIGNQPHSEVAALAVLLDRLLEGKGLKKEFKGAKIKIVPQARGKKVVEVQGYAEQDKAEGKATPGKNWENSGFTGDNP	soluble
MADGQVHDELMMDQQQQQGVVPQQGDIHLSPIDKDLGDAALENNVRQYHLDGVVVSEGMKRMIIDLQRHWLSEYHASREKCLVELTEKLHQEFMMDQQKIRSELLQQFKDELEQTRADLENKHRENLKMESAKLNEKHKRELVASRKKQWCWSCDNEAIYHCCWNTAYCSVECQQGHWQTHRKFCRRKKGNNAPGAPSVPAPQQVGAPMPPQQQ	not soluble
GPGSMDVLVPRAASSGAVGRTPAARTFSAAPPSASSSLCVVGSADHGLKVFNLCTMRELKTLYTKTCGHTEWVTACRFLSDRRVISGGMDSKLCLWNDVTRGGPGRCVDLLGHTGSISQVEVNERHGRSIAMSSSYDRTIRVWELDGIAGGREMGCLSGHKGPVTQFSWLETEVLSGDRQGTVKLWDVETAQCHLTASSKRGQIGSLAHLVHPGVGHLALFGDQGGALTVVDARGPSSAKPLFQDVLHPGGMVTFIRAPSPTAVSAPLIVTCGADKRIIVRDARHNFAEVCAITDHDDFVYSMEVIGNILLSGAGNGRLLVHDVETGELLYELKANAAAVREMFASPSVLVAAGDDGNAKVFDFM	not soluble
GSHMSHDGKEEPGIAKKINSVDDIIIKCQCWVQKNDEERLAEILSINTRKAPPKFYVHYVNYNKRLDEWITTDRINLDKEVLYPKLKATDED	soluble
